From article PMC5028935, “De novo synthesis of fatty acids is regulated by FapR protein in Exiguobacterium antarcticum B7, a psychrotrophic bacterium isolated from Antarctica” come the findings set out here.

The target of the series is T1, FapR (Exiguobacterium antarcticum B7, UniProt A0ABT6QZ49 1-189).
T1 sequence: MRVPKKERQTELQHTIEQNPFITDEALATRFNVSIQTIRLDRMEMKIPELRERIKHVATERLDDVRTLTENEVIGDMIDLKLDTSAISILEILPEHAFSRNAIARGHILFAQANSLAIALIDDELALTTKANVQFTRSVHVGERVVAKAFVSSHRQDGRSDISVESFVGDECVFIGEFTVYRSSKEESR
Kind of series: EMSA; 2, 2.8, 3.8 and 4.5 uM protein; no shift; 10 mM Tris-HCl (pH not given), 0.2 mM DTT, 0.2 mM EDTA, 0.25 mM KCl (so in the source), 1 h on ice; 7.5% native PAGE, SYBR Safe stain. As to conditions: protein: recombinant; (pET-46 Ek/LIC vector adds a His tag); chain copies: 2. In general terms: In EMSA bound probe runs differently from free probe, usually more slowly.

B1: fapR-plsX-fabD-fabG promoter, synthesized up to the palindrome (dsDNA)
DNA 1: TACTTGAAAGTGAACAACAAGGGATATATACTACTATTAGTACCAGGTAATAA
DNA 2: TTATTACCTGGTACTAATAGTAGTATATATCCCTTGTTGTTCACTTTCAAGTA
In the case of B1, the binding result is listed as “no binding”.
